The text below walks through data of patent US6875599B2, “Mammalian secreted group III phospholipase A2” (Centre National de la Recherche Scientifique - CNRS, priority 2000, dated 2005).

Assay [1] can be described thus: Initial rate of hydrolysis of small unilamellar vesicles of phosphatidylglycerol and phosphatidylcholine. The format is biochemical, human. The note with it: Q-Sepharose purified hGIII sPLA2; data not shown. How it is done:
(§1) Studies to measure the initial rate of hydrolysis of small unilamellar vesicles of phosphatidylglycerol (1-palmitoyl-2-([9,10[^3H])-palmitoyl-sn-glycero-3-phosphoglycerol in 1-palmitoyl-2-oleoyl-sn-glycero-3-phosphoglycerol at 50 Ci/mol) and phosphatidylcholine (1-palmitoyl-2-([9,10[^3H])-palmitoyl-sn-glycero-3-phosphocholine, 50 Ci/mol) were carried as described (8) using Q-Sepharose purified hGIII sPLA2. Initial rates were calculated from 3 time points in the linear portion of the product versus time curve. pH-rate profiles for the hydrolysis of phosphatidylcholine were obtained as described (8). The Ca^2+ dependency of phospholipid hydrolysis was carried out with the fluorimetric assay (described above) with 10 μM EGTA (no Ca^2+) or with CaCl2 in excess of EGTA to give 10-650 μM Ca^2+.

A short description of assay [2]: pH-rate profile for the hydrolysis of phosphatidylcholine. The note with it: Q-Sepharose purified hGIII sPLA2. The format is biochemical, human.
Text: as §1, with “FIG. 4 presents the enzymatic properties of hGIII sPLA2. A, Ca^2+ dependency of the hydrolysis of 1 -palmitoyl-2-(10-pyrenedecanoyl)-sn-glycerol-3- phosphomethanol vesicles by Q-sepharose purified hGIII sPLA2. B, pH dependency of the hydrolysis of phosphatidylcholne vesicles by Q-Sepharose purified gGIII sPLA2. Studies” for “Studies”

B1: hGIII sPLA2: novel human secreted group III phospholipase A2, SEQ ID No. 2, expressed recombinantly in COS cells and partially purified on Q-Sepharose (protein, listed as Homo sapiens)
chain: MGVQAGLFGMLGFLGVALGGSPALRWYRTSCHLTKAVPGNPLGYLSFLAKDAQGLALIHARWDAHRRLQACSWEDEPELTAAYGALCAHETAWGSFIHTPGPELQRALATLQSQWEACRALEESPAGARKKRAAGQSGVPGGGHQREKRGWTMPGTLWCGVGDSAGNSSELGVFQGPDLCCREHDRCPQNISPLQYNYGIRNYRFHTISHCDCDTRFQQCLQNQHDSISDIVGVAFFNVLEIPCFVLEEQEACVAWYWWGGCRMYGTVPLARLQPRTFYNASWSSRATSPTPSSRSPAPPKPRQKQHLRKGPPHQKGSKRPSKANTTALQDPMVSPRLDVAPTGLQGPQGGLKPQGARWVCRSFRRHLDQCEHQIGPREIEFQLLNSAQEPLFHCNCTRRLARFLRLHSPPEVTNMLWELLGTTCFKLAPPLDCVEGKNCSRDPRAIRVSARHLRRLQQRRHQLQDKGTDERQPWPSEPLRGPMSFYNQCLQLTQAARRPDRQQKSWSQ
B1: in assay [1], the “Activity on anionic phosphatidylglycerol vesicles versus zwitterionic phosphatidylcholine vesicles, based on initial velocities” value was 11 fold. In assay [2], the “pH of optimal activity on phosphatidylcholine vesicles” value came to 8 pH.
